Reference: doi:10.1101/2025.01.22.634233

Tests used:
Test in all cases: fluorescence polarisation
[1] = molecular target: non-phosphorylated (CTD)2 peptide, 5,6-FAM-labelled
[2] = molecular target: pY1pS5-(CTD)2 peptide, 5,6-FAM-labelled
[3] = molecular target: pS5-(CTD)2 peptide, 5,6-FAM-labelled

| Substance | Kd [1] [µM] | Kd [2] [µM] | Kd [3] [µM] |
| --- | --- | --- | --- |
| BRCA1 BRCT (BRCA1^1646-1859), wild type (from UniProt P38398 1646-1859) (domain or fragment) | 948 | 184 |  |
| BRCA1 BRCT R1699L (from UniProt P38398 1646-1859) (domain or fragment) |  |  | 413 |
| BRCA1 BRCT^S1655F,K1702M (from UniProt P38398 1646-1859) (domain or fragment) |  |  | 895 |
